Measured values as given in patent publication US20200079826.

Experiments:
Test in all cases: cell_activity
[1] = test system: ZFN 56527 (synthetic); details: pair with 56526; K562 deltaF508 line
[2] = test system: ZFN 56529 (synthetic); details: pair with 56526; K562 deltaF508 line
[3] = test system: ZFN 56127 (synthetic); details: pair with 56126; K562
[4] = test system: ZFN 56254 (synthetic); details: pair with 56255; K562
[5] = test system: ZFN 56690 (synthetic); details: pair with 56691; Neuro2a
[6] = test system: ZFN 56316 (synthetic); details: pair with 56317; K562
[7] = test system: ZFN 56643 (synthetic); details: pair with 56644; Neuro2a
[8] = test system: ZFN 56526 (synthetic); details: 16.8% with 56527; K562 deltaF508 line
[9] = test system: ZFN 56444 (synthetic); details: pair with 56445; K562; F6 printed QSGMLAR but cited as SEQ 5 (QSGNLAR)
[10] = test system: ZFN 56126 (synthetic); details: pair with 56127; K562
[11] = test system: ZFN 56691 (synthetic); details: pair with 56690; Neuro2a; Table 2 site differs slightly from listing
[12] = test system: ZFN 56445 (synthetic); details: pair with 56444; K562
[13] = test system: ZFN 56255 (synthetic); details: pair with 56254; K562
[14] = test system: ZFN 56644 (synthetic); details: pair with 56643; Neuro2a
[15] = test system: ZFN 56317 (synthetic); details: pair with 56316; K562

Sequence: ATGATGAATATAGATACAGAAGCGTCAT (double strand) [CFTR dF508 56529/56527 site]
- activity [1]: 16.8 % indels
- activity [2]: 19.6 % indels

Sequence: ATGGAAACTGAGCTGCAGGTGTGTGATT (double strand) [CFTR int7 56127 site]
- activity [3]: 55.4 % indels

Sequence: ATTAAGTCCACGCATACTGAAGTCTTGG (double strand) [CFTR int8 56254 site]
- activity [4]: 50.1 % indels

Sequence: CCCTGGGTTATGCTGTGATCTTGTGTCA (double strand) [Cftr int1 56690 site]
- activity [5]: 67.2 % indels

Sequence: GAAAAGACTATTGAGGGACTGGTGTAGA (double strand) [CFTR int1 56316 site]
- activity [6]: 52 % indels

Sequence: GCAATGCTTCATGGGAAAGTACAGTGGC (double strand) [Cftr int8 56643 site]
- activity [7]: 49.2 % indels

Sequence: GGAAACACCAATGATATTTTCTTTAATG (double strand) [CFTR dF508 56526 site]
- activity [8]: 19.6 % indels

Sequence: GGGAAGAAGCAGCTGAAATGTGTAGGTG (double strand) [CFTR int3 56444 site]
- activity [9]: 32.7 % indels

Sequence: GTACACTGGACTCAGCAGCCTGAATTCC (double strand) [CFTR int7 56126 site]
- activity [10]: 55.4 % indels

Sequence: GTCAACAGGTGTACTGCAGGCATGCTAG (double strand) [Cftr int1 56691 site]
- activity [11]: 67.2 % indels

Sequence: GTGAGAAGGCAGAGAGAAGAATATTTAT (double strand) [CFTR int3 56445 site]
- activity [12]: 32.7 % indels

Sequence: TAGGGAAGGTAGGAGCATAAGGAAGAAT (double strand) [CFTR int8 56255 site]
- activity [13]: 50.1 % indels

Sequence: TGGAAGCTGAAGTTCTTGGAACATAGCA (double strand) [Cftr int8 56644 site]
- activity [14]: 49.2 % indels

Sequence: TTTATCCTTTTGCTGACCATGTTTTGTT (double strand) [CFTR int1 56317 site]
- activity [15]: 52 % indels
